These results are taken from article PMC2907653.

Substrate in data set [1]: CN(C)c1nc2c(c(=O)[nH]1)[n+](C)cn2[C@@H]1O[C@H](COP(=O)(O)OP(=O)(O)OP(=O)(O)OC[C@H]2O[C@@H](n3cnc4c(=O)[nH]c(N)nc43)[C@H](O)[C@@H]2O)[C@@H](O)[C@H]1O
The data set is described as follows: fluorimetric and HPLC hydrolysis kinetics. In kind it is biochemical, Caenorhabditis elegans. The following applies: cleaved between β and γ phosphates; cap-binding pocket; pH 7.2; 20.0 °C.

Substrate in data set [2]: CC[n+]1cn([C@@H]2O[C@H](COP(=O)(O)OP(=O)(O)OP(=O)(O)OC[C@H]3O[C@@H](n4cnc5c(=O)[nH]c(N)nc54)[C@H](O)[C@@H]3O)[C@@H](O)[C@H]2O)c2nc(N)[nH]c(=O)c21
The data set is described as follows: purified protein. The following applies: cleaved between β and γ phosphates; cap-binding pocket; pH 7.2; 20.0 °C.

Substrate in data set [3]: CN(C)c1nc2c(c(=O)[nH]1)[n+](C)cn2[C@@H]1O[C@H](COP(=O)(O)OP(=O)(O)OP(=O)(O)OC[C@H]2O[C@@H](n3cnc4c(N)ncnc43)[C@H](O)[C@@H]2O)[C@@H](O)[C@H]1O
The data set is described as follows: purified protein. To be noted: cleaved between β and γ phosphates; pH 7.2; 20.0 °C.

Substrate in data set [4]: CNc1ncnc2c1ncn2[C@@H]1O[C@H](COP(=O)(O)OP(=O)(O)OP(=O)(O)OC[C@H]2O[C@@H](n3c[n+](C)c4c(=O)[nH]c(N)nc43)[C@H](O)[C@@H]2O)[C@@H](O)[C@H]1O
The data set is described as follows: purified protein. To be noted: cleaved between β and γ phosphates; pH 7.2; 20.0 °C.

Substrate in data set [5]: CO[C@@H]1[C@H](O)[C@@H](COP(=O)(O)OP(=O)(O)OP(=O)(O)OC[C@H]2O[C@@H](n3c[n+](C)c4c(=O)[nH]c(N)nc43)[C@H](O)[C@@H]2O)O[C@H]1n1cnc2c(=O)[nH]c(N)nc21
The data set is described as follows: purified protein. To be noted: cleaved between β and γ phosphates; pH 7.2; 20.0 °C.

Substrate in data set [6]: C[n+]1cn([C@@H]2O[C@H](COP(=O)(O)OP(=O)(O)OP(=O)(O)OC[C@H]3O[C@@H](n4c[n+](C)c5c(=O)[nH]c(N)nc54)[C@H](O)[C@@H]3O)[C@@H](O)[C@H]2O)c2nc(N)[nH]c(=O)c21
The data set is described as follows: purified protein. The following applies: cleaved between β and γ phosphates; pH 7.2; 20.0 °C.

Substrate in data set [7]: C[n+]1cn([C@@H]2O[C@H](COP(=O)(O)OP(=O)(O)OP(=O)(O)OC[C@H]3O[C@@H](n4cnc5c(=O)[nH]c(N)nc54)C[C@@H]3O)[C@@H](O)[C@H]2O)c2nc(N)[nH]c(=O)c21
As to the kind of experiment: purified protein. The following applies: cleaved between β and γ phosphates; pH 7.2; 20.0 °C.

Substrate in data set [8]: C[n+]1cn([C@@H]2O[C@H](COP(=O)(O)OP(=O)(O)OP(=O)(O)OC[C@H]3O[C@@H](n4cnc5c(=O)[nH]c(N)nc54)[C@H](O)[C@@H]3O)[C@@H](O)[C@H]2O)c2nc(N)[nH]c(=O)c21
The data set is described as follows: purified protein. The following applies: cleaved between β and γ phosphates; cap-binding pocket; pH 7.2; 20.0 °C.

Substrate in data set [9]: C[n+]1cn([C@@H]2O[C@H](COP(=O)(O)OP(=O)(O)OP(=O)(O)OC[C@H]3O[C@@H](n4cnc5c(N)ncnc54)[C@H](O)[C@@H]3O)[C@@H](O)[C@H]2O)c2nc(N)[nH]c(=O)c21
As to the kind of experiment: purified protein. To be noted: cleaved between β and γ phosphates; pH 7.2; 20.0 °C.

Substrate in data set [10]: Nc1nc2c(ncn2[C@@H]2O[C@H](COP(=O)(O)OP(=O)(O)OP(=O)(O)OC[C@H]3O[C@@H](n4c[n+](Cc5ccccc5)c5c(=O)[nH]c(N)nc54)[C@H](O)[C@@H]3O)[C@@H](O)[C@H]2O)c(=O)[nH]1
The data set is described as follows: purified protein. To be noted: cleaved between β and γ phosphates; cap-binding pocket; pH 7.2; 20.0 °C.

B1: C. elegans scavenger decapping enzyme (DcpS) (Caenorhabditis elegans) (protein)
chain: MKRIADEELVREERAEESTQKWLQDAKFQEILGADSSHKSLFVLLSHPDGSQGILLANKSPFSEEKSDIEKLLATAQLQEISRNDIFGSYNIEIDPKLNLLKSQLIYPINDRLIAKYRQEEKFVIRETPELYETVTRPYIEKYQLNLNWVYNCLEKRSEVDKIVFEDPDNENGFVLLQDIKWDGKTLENLYVLAICHRHGLKSVRDLTGDDLEMLYNMRDKSLEAINQKYGLKTDQIKCYFHYQPSFYHLHVHFINLKYDAPASTTMSAILLDDVINNLELNPEHYKKSTLTFTRKNGDKLMEMFREALKN
By Km is commonly meant the substrate concentration at which the rate is half of its maximum. The term Vmax denotes the top rate of the reaction or transport when substrate is in excess. Regarding B1, the Km in [1] is 3.85 µM; in “purified protein [2]” it was 0.61 µM; in “purified protein [3]”, 2.36 µM; in “purified protein [4]”, 1.03 µM; in the data set “purified protein [5]”, 1.23 µM; in the data set “purified protein [6]” it was 1.12 µM. Besides, the Michaelis-Menten constant (Km) in “purified protein [7]” turned out to be 1.36 µM; in the data set “purified protein [8]”, 1.17 µM; in “purified protein [9]”, 0.6 µM; in the data set “purified protein [10]”, 1.83 µM. Further, the Vmax came to 4.65 µmol/min/mg in [1]; 3.12 µmol/min/mg in the data set “purified protein [2]”; 2.06 µmol/min/mg in the data set “purified protein [3]”; 1.33 µmol/min/mg in the data set “purified protein [4]”; 1.66 µmol/min/mg in the data set “purified protein [5]”; 0.91 µmol/min/mg in “purified protein [6]”. The Vmax in “purified protein [7]” is 2 µmol/min/mg; in “purified protein [8]”, 1.53 µmol/min/mg; in the data set “purified protein [9]” it was 1.09 µmol/min/mg; in “purified protein [10]”, 3.06 µmol/min/mg.
